One assay addresses native PP1 (rabbit) (UniProt P62139).
The target of another assay is recombinant PP1 (UniProt P62139).

UniProt P62139, sequence (P62139 whole entry): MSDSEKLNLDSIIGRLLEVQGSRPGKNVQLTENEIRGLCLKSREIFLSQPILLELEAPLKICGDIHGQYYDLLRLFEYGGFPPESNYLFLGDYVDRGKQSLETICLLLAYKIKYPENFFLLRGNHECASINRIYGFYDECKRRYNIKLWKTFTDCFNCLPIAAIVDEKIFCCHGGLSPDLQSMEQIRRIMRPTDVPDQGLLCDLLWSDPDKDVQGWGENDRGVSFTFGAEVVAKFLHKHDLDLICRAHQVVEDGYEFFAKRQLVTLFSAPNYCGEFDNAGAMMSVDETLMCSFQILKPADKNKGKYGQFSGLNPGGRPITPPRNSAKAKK

B1: PKA-thiophosphorylated form of inhibitor-1 (natural protein)
chain: MEQDNSPRKIQFTVPLLEPHLDPEAAEQIRRRRPTPATLVLTSDQSSPEIDEDRIPNPHLKSTLAMSPRQRKKMTRITPTMKELQMMVEHHLGQQQQGEEPEGAAESTGTQESRPPGIPDTEVESRLGTSGTAKKTAECIPKTHERGSKEPSTKEPSTHIPPLDSKGANSV
modifications: thiophosphorylated Thr35
The molecule B1 had an IC50 for inhibition of native PP1 phosphatase activity ([32P]phosphorylase a as substrate) with native PP1 (rabbit) of 19 nM. For the same molecule, the IC50 for inhibition of recombinant PP1 phosphatase activity ([32P]phosphorylase a as substrate) with recombinant PP1 came to 980 nM.

B2: PKA-thiophosphorylated form of inhibitor-1[I10A;F12A] (natural protein)
chain: MEQDNSPRKAQATVPLLEPHLDPEAAEQIRRRRPTPATLVLTSDQSSPEIDEDRIPNPHLKSTLAMSPRQRKKMTRITPTMKELQMMVEHHLGQQQQGEEPEGAAESTGTQESRPPGIPDTEVESRLGTSGTAKKTAECIPKTHERGSKEPSTKEPSTHIPPLDSKGANSV
modifications: thiophosphorylated Thr35
Turning to B2, the IC50 for inhibition of native PP1 phosphatase activity ([32P]phosphorylase a as substrate) with native PP1 (rabbit) amounted to 240 nM. For the same molecule, the IC50 for inhibition of recombinant PP1 phosphatase activity ([32P]phosphorylase a as substrate) with recombinant PP1 was found to be 553 nM.

The values above are taken from article PMC5758809.
